system: Escherichia coli TOP10; test: shrunken log2 fold change of peptide-encoding DNA abundance (4.5 h post-induction vs induction); higher = less antimicrobial activity (less host growth inhibition); conditions: time post-induction: 4.5 h; library: site-saturation at positions 5, 18, 19, 20
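Further: peptides expressed intracellularly from a pBAD plasmid library in pooled LB shake-flask culture, induced with 0.3% L-arabinose, DNA abundance read by NGS, three biological replicates, DESeq2 with apeglm shrinkage.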

Sequence | shrunken log2 fold change
RRIRLRPPRLPRPRPRPVKLPRP | -0.473
RRIRQRPPRLPRPRPRPRWEPRP | 0.0653
RRIRNRPPRLPRPRPRPDYVPRP | -0.296
RRIRFRPPRLPRPRPRPQNEPRP | -0.603
RRIRVRPPRLPRPRPRPVAGPRP | 0.0748
RRIRKRPPRLPRPRPRPQGLPRP | 0.256
RRIRCRPPRLPRPRPRPWMHPRP | -0.621
RRIRLRPPRLPRPRPRPGRIPRP | -0.136
RRIRCRPPRLPRPRPRPHQKPRP | 0.00571
RRIRDRPPRLPRPRPRPQFQPRP | -0.145
RRIRVRPPRLPRPRPRPMYVPRP | 3.48
RRIRQRPPRLPRPRPRPEPSPRP | 0.102
RRIRTRPPRLPRPRPRPWGYPRP | -0.0354
RRIRVRPPRLPRPRPRPQTNPRP | -0.0562
RRIRRRPPRLPRPRPRPMLQPRP | -0.274
RRIRYRPPRLPRPRPRPQDPPRP | -0.0639
RRIRPRPPRLPRPRPRPREPPRP | 0.0876
RRIRIRPPRLPRPRPRPHQPPRP | -0.421
RRIRHRPPRLPRPRPRPRDHPRP | 0.175
RRIRLRPPRLPRPRPRPSHRPRP | -0.0457
RRIRARPPRLPRPRPRPKIWPRP | 0.53
RRIRQRPPRLPRPRPRPITWPRP | 0.129

Sequence | shrunken log2 fold change
RRIRQRPPRLPRPRPRPRAMPRP | 0.0219
RRIRHRPPRLPRPRPRPMCPPRP | -0.0218
RRIRVRPPRLPRPRPRPYRGPRP | -0.402
RRIRPRPPRLPRPRPRPRVNPRP | -0.194
RRIRERPPRLPRPRPRPPKIPRP | -0.28
RRIRLRPPRLPRPRPRPSPSPRP | -0.218
RRIRRRPPRLPRPRPRPASRPRP | 0.202
RRIRTRPPRLPRPRPRPQPSPRP | -0.095
RRIRGRPPRLPRPRPRPIIAPRP | 0.571
RRIRIRPPRLPRPRPRPTYLPRP | -0.463
RRIRFRPPRLPRPRPRPHQLPRP | -0.374
RRIRYRPPRLPRPRPRPPENPRP | -0.145
RRIRYRPPRLPRPRPRPDKMPRP | -0.0477
RRIRVRPPRLPRPRPRPWEMPRP | -0.00133
RRIRFRPPRLPRPRPRPVLSPRP | -0.0531
RRIRIRPPRLPRPRPRPWYSPRP | -0.821
RRIRSRPPRLPRPRPRPWQDPRP | -0.136
RRIRFRPPRLPRPRPRPRGDPRP | 0.477
RRIRCRPPRLPRPRPRPTYHPRP | -0.815
RRIRNRPPRLPRPRPRPQWGPRP | -0.0138
RRIRCRPPRLPRPRPRPRAIPRP | 0.0982
RRIRHRPPRLPRPRPRPFMFPRP | -0.66

Sequence | shrunken log2 fold change
RRIRHRPPRLPRPRPRPLMMPRP | -0.124
RRIRKRPPRLPRPRPRPWMSPRP | -0.0718
RRIRTRPPRLPRPRPRPWMPPRP | -0.247
RRIRARPPRLPRPRPRPASLPRP | 0.196
RRIRNRPPRLPRPRPRPMVQPRP | -0.0629
RRIRFRPPRLPRPRPRPCINPRP | -0.0523
RRIRFRPPRLPRPRPRPYRMPRP | -0.571
RRIRYRPPRLPRPRPRPDPQPRP | -0.0137
RRIRPRPPRLPRPRPRPYMHPRP | -0.493
RRIRFRPPRLPRPRPRPCCQPRP | -0.439
RRIRWRPPRLPRPRPRPEWAPRP | 0.497
RRIRARPPRLPRPRPRPQKDPRP | 0.0524
RRIRLRPPRLPRPRPRPRTAPRP | 0.482
RRIRWRPPRLPRPRPRPIARPRP | -0.00663
RRIRIRPPRLPRPRPRPSVGPRP | -0.261
RRIRKRPPRLPRPRPRPEGEPRP | -0.0225
RRIRMRPPRLPRPRPRPSTDPRP | 0.949
RRIRARPPRLPRPRPRPGLCPRP | 0.553
RRIRVRPPRLPRPRPRPLTHPRP | -0.439
RRIRFRPPRLPRPRPRPCLIPRP | -0.448
RRIRGRPPRLPRPRPRPIRRPRP | 0.346
RRIRARPPRLPRPRPRPCMDPRP | 0.0143

Sequence | shrunken log2 fold change
RRIRKRPPRLPRPRPRPKSQPRP | 0.109
RRIRRRPPRLPRPRPRPNHIPRP | -0.502
RRIRLRPPRLPRPRPRPQREPRP | 0.144
RRIRARPPRLPRPRPRPHHDPRP | -0.0472
RRIRRRPPRLPRPRPRPFSMPRP | 0.0721
RRIRFRPPRLPRPRPRPALAPRP | 0.257
RRIRTRPPRLPRPRPRPCWHPRP | -0.119
RRIRFRPPRLPRPRPRPTTQPRP | 0.376
RRIRWRPPRLPRPRPRPSKSPRP | -0.0449
RRIRLRPPRLPRPRPRPVRAPRP | 0.687
RRIRARPPRLPRPRPRPETMPRP | 0.0902
RRIRKRPPRLPRPRPRPYLIPRP | -1.9
RRIRNRPPRLPRPRPRPRQRPRP | 0.215
RRIRFRPPRLPRPRPRPQVKPRP | -0.279
RRIRERPPRLPRPRPRPVQCPRP | 0.00166
RRIRKRPPRLPRPRPRPDHSPRP | -0.148
RRIRKRPPRLPRPRPRPTQVPRP | 0.312
RRIRGRPPRLPRPRPRPVPLPRP | 0.13
RRIRIRPPRLPRPRPRPFVLPRP | -0.113
RRIRARPPRLPRPRPRPRILPRP | 0.323
RRIRWRPPRLPRPRPRPVVAPRP | 0.28
RRIRSRPPRLPRPRPRPDPFPRP | -0.214

Sequence | shrunken log2 fold change
RRIRLRPPRLPRPRPRPAYHPRP | -0.249
RRIRERPPRLPRPRPRPIFQPRP | -0.00561
RRIRYRPPRLPRPRPRPFEVPRP | -0.0115
RRIRNRPPRLPRPRPRPSPEPRP | -0.123
RRIRDRPPRLPRPRPRPKREPRP | -0.024
RRIRRRPPRLPRPRPRPDGQPRP | 0.298
RRIRWRPPRLPRPRPRPAEAPRP | 0.0865
RRIRWRPPRLPRPRPRPTDWPRP | 0.581
RRIRVRPPRLPRPRPRPFFQPRP | -0.0276
RRIRHRPPRLPRPRPRPKTNPRP | -0.376
RRIRQRPPRLPRPRPRPDMLPRP | 0.0939
RRIRRRPPRLPRPRPRPTQMPRP | 0.694
RRIRKRPPRLPRPRPRPAMKPRP | 0.141
RRIRIRPPRLPRPRPRPKSVPRP | -0.0925
RRIRWRPPRLPRPRPRPWQVPRP | 0.172
RRIRIRPPRLPRPRPRPLNRPRP | -0.476
RRIRWRPPRLPRPRPRPIMYPRP | -0.0994
RRIRPRPPRLPRPRPRPEGFPRP | 0.86
RRIRIRPPRLPRPRPRPHDWPRP | -0.317
RRIRARPPRLPRPRPRPIRCPRP | 0.188
RRIRRRPPRLPRPRPRPKAYPRP | 0.224

— the supplement of paper PMC9112550, “Optimization of the antimicrobial peptide Bac7 by deep mutational scanning” (BMC Biology, 2022)
